Laboratory results taken from paper PMC2745324 (Biochemistry, 2009).
Changes are numbered by the printed parent chain. Names may count otherwise. Read-outs that look alike come from different tables or passages of the source.

B1: human adenylosuccinate lyase, wild type (enzyme)
chain: MAAGGDHGSPDSYRSPLASRYASPEMCFVFSDRYKFRTWRQLWLWLAEAEQTLGLPITDEQIQEMKSNLENIDFKMAAEEEKRLRHDVMAHVHTFGHCCPKAAGIIHLGATSCYVGDNTDLIILRNALDLLLPKLARVISRLADFAKERASLPTLGFTHFQPAQLTTVGKRCCLWIQDLCMDLQNLKRVRDDLRFRGVKGTTGTQASFLQLFEGDDHKVEQLDKMVTEKAGFKRAFIITGQTYTRKVDIEVLSVLASLGASVHKICTDIRLLANLKEMEEPFEKQQIGSSAMPYKRNPMRSERCCSLARHLMTLVMDPLQTASVQWFERTLDDSANRRICLAEAFLTADTILNTLQNISEGLVVYPKVIERRIRQELPFMATENIIMAMVKAGGSRQDCHEKIRVLSQQAASVVKQEGGDNDLIERIQVDAYFSPIHSQLDHLLDPSSFTGRASQQVQRFLEEEVYPLLKPYESVMKVKAE
B2: human adenylosuccinate lyase L311V mutant (enzyme)
chain: B1 chain with L311V
B3: human adenylosuccinate lyase R396H mutant (enzyme)
chain: B1 chain with R396H
B4: human adenylosuccinate lyase R194C mutant (enzyme)
chain: B1 chain with R194C
B5: human adenylosuccinate lyase R396C mutant (enzyme)
chain: B1 chain with R396C

How the values were obtained:
[1] = target: human adenylosuccinate lyase K246E mutant (human) (UniProt P30566)
[2] = target: human adenylosuccinate lyase K246E mutant (human) (UniProt P30566); assay: AUC
AUC [3] = target: the molecule itself; assay: AUC
SEC = target: the molecule itself; assay: SEC
AUC [4] = target: the molecule itself; assay: AUC; remark: listed apart in the source
AUC [5] = target: the molecule itself; assay: AUC; remark: listed apart in the source

Row | Molecule | Vmax of SAMP cleavage at 25 °C [1] [µmol/min/mg] | percent as dimer (D-12mer model) [2] [%] | stoichiometry N [2] | percent as monomer (M-Tet model) (AUC [3]) [%] | percent as tetramer (M-Tet model) (AUC [3]) [%] | stoichiometry N (SEC) | percent as monomer (M-Tet model) (AUC [4]) [%] | percent as tetramer (M-Tet model) (AUC [4]) [%] | stoichiometry N (AUC [5])
1 | human adenylosuccinate lyase K246E mutant (from UniProt P30566 1-481) (enzyme) | 0.23 | 94 | 2 |  |  |  |  |  | 
2 | B1 |  |  |  | 20 | 80 | 4 | 32 | 68 | 
3 | B2 |  |  |  | 40 | 60 | 4 | 32 | 68 | 
4 | B3 |  |  |  |  |  |  | 34 | 66 | 4
5 | B4 |  |  |  | 37 | 63 | 4 | 33 | 67 | 
6 | B5 |  |  |  | 32 | 68 |  | 40 | 60 | 4
